Results: PMC6600523, “Interference with Amyloid-β Nucleation by Transient Ligand Interaction” (Molecules, 2019)
Where a SMILES comes first, the peptide text is derived from it. [ ]: non-standard residue; d: D form. The star is where a group is joined. 5FAM = O=C1OC2(c3ccc(O)cc3Oc3cc(O)ccc32)c2ccc(C(=O)*)cc21

Columns and labels:
[1] = Sedimentation velocity AUC with fluorescence detection, labeled peptide alone; format: physicochemical; conditions: AUC-FDS, 60,000 rpm, 20 °C, 15 h, c(s) model; 0.2 μM FITC-D3 in 20 mM sodium phosphate, 50 mM NaCl pH 7.4, 0.0004% PEI; 0.33 μM FITC-Aβ42 in 55 mM Tris, 50 mM NaCl pH 7.4, 0.01% Tw20
Protocol: All measurements were performed using an XL-A analytical ultracentrifuge (Beckman coulter, Brea, CA, USA). […] All samples were prepared in 20 mM sodium phosphate, 50 mM NaCl (pH 7.4) containing 0.0004% PEI (w/v). Samples were then loaded into 3-mm double-sector titanium cells (Nanolytics, Potsdam, Germany), with each sector containing a 100 μL sample. The detection system uses an excitation laser at 488 nm and an emission cut-off filter at 505 nm to collect fluorescence signals. The amplification factor was adjusted to the same value for all samples for comparability. […] Data was acquired at 20 nm radial resolution. After thorough thermal equilibration the centrifugation was carried out at 60,000 rpm (289,000× g) at 20 °C for 15 h. Carrier proteins, such as albumin and kappa casein, are usually recommended to minimize unspecific surface adsorption for fluorescence-based AUC [56]. All sedimentation profiles were subjected to the software package SEDFIT (version 15.01b) for data evaluation. The data was analyzed with the continuous distribution c(s) Lamm equation model to obtain the sedimentation coefficient distributions. Fitting parameters (Table S1) including the buffer density and viscosity were determined using Sednterp (version 20130813BETA). […]

Aβ42 [2] = target: T1, Aβ42 (Homo sapiens, UniProt P05067); test: Sedimentation velocity AUC with fluorescence detection, Aβ42 and D3 mixtures; format: binding
T1 construct: purchased Bachem H-1368.1000
T1 sequence (P05067 672-713 limits assumed): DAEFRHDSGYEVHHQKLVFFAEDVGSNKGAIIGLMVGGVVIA
Protocol: All measurements were performed using an XL-A analytical ultracentrifuge (Beckman coulter, Brea, CA, USA). […] All samples were prepared in 20 mM sodium phosphate, 50 mM NaCl (pH 7.4) containing 0.0004% PEI (w/v). Samples were then loaded into 3-mm double-sector titanium cells (Nanolytics, Potsdam, Germany), with each sector containing a 100 μL sample. The detection system uses an excitation laser at 488 nm and an emission cut-off filter at 505 nm to collect fluorescence signals. The amplification factor was adjusted to the same value for all samples for comparability. […] Data was acquired at 20 nm radial resolution. After thorough thermal equilibration the centrifugation was carried out at 60,000 rpm (289,000× g) at 20 °C for 15 h. Carrier proteins, such as albumin and kappa casein, are usually recommended to minimize unspecific surface adsorption for fluorescence-based AUC [56]. All sedimentation profiles were subjected to the software package SEDFIT (version 15.01b) for data evaluation. The data was analyzed with the continuous distribution c(s) Lamm equation model to obtain the sedimentation coefficient distributions. Fitting parameters (Table S1) including the buffer density and viscosity were determined using Sednterp (version 20130813BETA). […] Final graphs were generated using GUSSI (version 1.2.1) and sedimentation coefficients were standardized to s-values in pure water at 20 °C (s20,w).

Aβ42 [3] = target: T1, Aβ42; test: ThT assay, fibrillation kinetics of Aβ42; format: biochemical; conditions: 50 mM NaCl pH 7.4, 20 °C, AmyloFit fit, triplicate
Protocol: ThT was added at a final concentration of 5 μM in all samples. The final volume of each sample was 200 μL. Samples were prepared on ice and were pipetted into a 96-well plate afterwards. The plate was sealed with a microplate sealing film. All measurements were conducted at 20 °C with a microplate reader (Infinite M200, Tecan, Männedorf, Switzerland). The fluorescence was recorded at an excitation wavelength (λex) of 445 nm and an emission wavelength (λem) of 485 nm every 30 min for 120 h. […] All samples were prepared in triplicate.
The ThT data was then subjected to the online server AmyloFit with a customized sigmoidal Equation (1) to determine the lag time tlag , and the half completion time of the aggregation process t1/2 , according to previous studies. (1) It=k0t+A/1+exp−kt−t1/2, where k0 represents the slope of the baseline, A is the amplitude, k denotes the apparent elongation rate constant. The lag time tlag can be derived from the intercept between the time axis and the tangent with slope k from the midpoint of the fitted sigmoidal curve, which is given by the following Equation (2):(2) tlag=t1/2−2/k

[4] = 20 μM Aβ42 with (label D3, 10:1) or without (label Aβ42) 2 μM D3, 55 mM Tris-HCl

Compound	Sedimentation coefficient s20,w of the labeled peptide alone [1]	s20,w of the main peak of FITC-D3 with Aβ42 (Aβ42 [2]; 0.2 μM FITC-D3 with 50-fold excess of Aβ42, 20 mM sodium phosphate, 50 mM NaCl pH 7.4, 0.0004% PEI, interpreted as 1:1 complex)	Averaged s20,w of the new species between 1 and 2 S, FITC-D3 with Aβ42 (Aβ42 [2]; 0.2 μM FITC-D3 with Aβ42, c(s) analyses from five independent experiments, complexes with higher stoichiometries)	Lag time tlag of fibrillation kinetics (Aβ42 [3]; 20 μM Aβ42 with (label D3) or without (label Aβ42) 2 μM D3, 20 mM sodium phosphate, 5 μM ThT)	Lag time tlag of fibrillation kinetics, Tris-HCl buffer (Aβ42 [3]; [4])	Slope k of fibrillation kinetics, Tris-HCl buffer (Aβ42 [3]; [4])
CC(C)C[C@@H](NC(=O)[C@@H](CCCNC(=N)N)NC(=O)[C@H](NC(=O)[C@@H](CCCNC(=N)N)NC(=O)[C@H]1CCCN1C(=O)[C@H](N)CCCNC(=N)N)[C@H](C)O)C(=O)N[C@H](Cc1c[nH]cn1)C(=O)N[C@@H](C(=O)N[C@H](Cc1c[nH]cn1)C(=O)N[C@H](CCCNC(=N)N)C(=O)N[C@H](CC(N)=O)C(=O)N[C@H](CCCNC(=N)N)C(=O)N[C@@H](CCCCNC(=O)c1ccc2c(c1)C(=O)OC21c2ccc(O)cc2Oc2cc(O)ccc21)C(N)=O)[C@H](C)O [FITC-D3] (H-[dR][dP][dR][dT][dR][dL][dH][dT][dH][dR][dN][dR]K(5FAM)-NH2; N-terminus and C-terminus assumed)	0.54 ± 0.02 S	0.71 ± 0.04 S	1.45 ± 0.08 S			
Aβ42: unlabeled amyloid-β peptide 42, Bachem product No. H-1368.1000 [reference compound]				17.3 ± 1.6 h	14.5 ± 1.4 h	0.13 ± 0.01
